Experimental data taken from patent US8435786.

Biological target: Fas receptor (CD95) on mouse bone marrow cells (mouse) (UniProt P25446)
Assay: cell-based or functional assay

Chain of streptavidin-FasL chimeric protein (P22629 37-163, change not shown): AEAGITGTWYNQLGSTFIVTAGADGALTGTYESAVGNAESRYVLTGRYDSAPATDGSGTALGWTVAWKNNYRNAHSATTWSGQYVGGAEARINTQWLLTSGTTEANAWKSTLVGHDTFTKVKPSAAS
Chain of Fas receptor (CD95) on mouse bone marrow cells (mouse) (P25446 22-327): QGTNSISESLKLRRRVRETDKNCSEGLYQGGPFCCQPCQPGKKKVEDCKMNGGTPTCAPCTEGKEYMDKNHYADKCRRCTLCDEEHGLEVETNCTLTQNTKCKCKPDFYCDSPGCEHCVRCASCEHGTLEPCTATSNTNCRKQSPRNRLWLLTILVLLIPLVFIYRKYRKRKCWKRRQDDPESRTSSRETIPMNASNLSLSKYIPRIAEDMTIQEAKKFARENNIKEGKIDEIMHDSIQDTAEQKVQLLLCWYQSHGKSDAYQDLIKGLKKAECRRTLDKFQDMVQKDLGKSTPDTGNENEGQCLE

Question: For “streptavidin-FasL chimeric protein (from UniProt P22629 37-163) (ligand)”, which apoptotic death of wBMC after 24 hours with FasL protein (annexin-V, 7AAD) (% of the cells) is on record?
Answer: The apoptotic death of wBMC after 24 hours with FasL protein (annexin-V, 7AAD) (% of the cells) was 40.

Question: What about the clonogenic activity of STR cells at 500 ng/ml FasL protein of the same substance?
Answer: Its clonogenic activity of STR cells at 500 ng/ml FasL protein is 26 % increase.

Question: And the clonogenic activity of STR cells with FasL and inhibition of caspase-3 (DEVD)?
Answer: Its clonogenic activity of STR cells with FasL and inhibition of caspase-3 (DEVD) is 75 % increase.

Question: And the clonogenic activity of lin- BMC (CFU assay) (% stimulation at ~500 ng/ml FasL)?
Answer: Its clonogenic activity of lin- BMC (CFU assay) (% stimulation at ~500 ng/ml FasL) is 45.
